Data from article PMC4002474, “Secretoglobin 1A1 and 1A1A Differentially Regulate Neutrophil Reactive Oxygen Species Production, Phagocytosis and Extracellular Trap Formation” (PLoS ONE, 2014).

Tests used:
[1] = molecular target: equine recombinant SCGB 1A1A (horse (E. caballus)); experiment: non-reducing SDS-PAGE; purified recombinant protein run on SDS-PAGE in non-reducing conditions; dimers and monomers confirmed by Western blot under denaturing and mild reducing conditions
[2] = molecular target: the molecule itself; experiment: as above

stoichiometry N [1]	Molecule	stoichiometry N [2]
2	equine recombinant SCGB 1A1A (natural protein)	–
–	equine recombinant SCGB 1A1 (secretoglobin family 1A member 1) (natural protein, horse (E. caballus), UniProt Q8MKG2 22-91, looked up, SCGB 1A1 of the horse (E. caballus), mature protein without the signal peptide, cDNA from equine lung, 100% identical to NCBI JQ906260.1; Cloned in pMAL-c5X, said to add no vector-derived residues after Factor Xa cleavage; Disulfide-dependent homodimer; also called club (Clara) cell secretory protein; CCSP; source: E. coli BL21 (NEB Express), purified (amylose column, Factor Xa, FPLC SuperDex …)) EICQSFADIIQGLFLGTPASFEAAVEPFKPDADMKAATTQLKTLVDFLPKNTKDSILKLMDKIAKSPLCA	2
